Assay results reported in paper PMC12756933, “Evidence for biomolecular condensates formed by the Escherichia coli MatP protein in spatiotemporal regulation of the bacterial cell division cycle” (International journal of biological macromolecules, 2025).
Values joined by “and” are separate entries in the source; they are usually repeats but may differ in a detail not shown here. Identical values can stand only once.

T1: FtsZ (E. coli, UniProt P0A9A6 1-383)
T1 construct: FtsZ, Escherichia coli cell division protein; oligomers of variable size without GTP, polymers with GTP; also called FtsZ-GTP; GTP-triggered FtsZ polymers
T1 sequence (looked up): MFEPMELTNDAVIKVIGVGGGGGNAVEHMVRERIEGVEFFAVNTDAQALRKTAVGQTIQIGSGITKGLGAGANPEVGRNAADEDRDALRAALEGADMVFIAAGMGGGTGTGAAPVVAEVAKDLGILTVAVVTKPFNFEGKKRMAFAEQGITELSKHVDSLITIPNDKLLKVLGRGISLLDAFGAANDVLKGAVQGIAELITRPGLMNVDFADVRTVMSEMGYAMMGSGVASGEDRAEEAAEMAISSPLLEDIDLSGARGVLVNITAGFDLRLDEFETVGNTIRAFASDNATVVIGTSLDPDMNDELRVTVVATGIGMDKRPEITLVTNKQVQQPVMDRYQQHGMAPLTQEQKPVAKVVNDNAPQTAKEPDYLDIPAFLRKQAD

B1: FtsZ (natural protein, E. coli, UniProt P0A9A6 1-383, looked up)
chain: T1 sequence (looked up)
modifications: Alexa Fluor 488 or Alexa Fluor 647 at amino groups, on the tracer fraction only (<1 mol of dye per mole of protein)
notes: FtsZ, E. coli; Oligomers of variable size without GTP, polymers with GTP; also called FtsZ-Alexa 488; FtsZ-Alexa 647
B2: MatP (natural protein, E. coli, UniProt P0A8N0 1-150, looked up)
chain: MKYQQLENLESGWKWKYLVKKHREGELITRYIEASAAQEAVDVLLSLENEPVLVNGWIDKHMNPELVNRMKQTIRARRKRHFNAEHQHTRKKSIDLEFIVWQRLAGLAQRRGKTLSETIVQLIEDAENKEKYANKMSSLKQDLQALLGKE
notes: MatP, Escherichia coli, untagged; sediments as a dimer (2.5 S); also called Ter macrodomain organizer MatP; MatP-Alexa 488 (labelled tracer)
B3: MatP (natural protein, E. coli, UniProt P0A8N0 1-150, looked up)
chain: B2 chain
modifications: Alexa Fluor 488 or Alexa Fluor 647 at amino groups, on the tracer fraction only (<1 mol of dye per mole of protein)
notes: MatP, E. coli, untagged; Labelled MatP was used as a tracer mixed with unlabelled MatP; Sediments as a dimer (2.5 S); also called Ter macrodomain organizer MatP; MatP-Alexa 488

Tests used:
[1] = target: the molecule itself; test: AUC; sedimentation velocity, dilute solution buffer with 100 mM KCl, GTP and GTP regeneration system, Rayleigh interference; FtsZ polymers with or without MatP
FtsZ [2] = target: T1, FtsZ; test: AUC; multi-signal sedimentation velocity (MSSV), 20 uM FtsZ and 7 uM MatP, absorbance at 250 and 280 nm, 48,000 rpm; dilute solution buffer (50 mM Tris-HCl pH 7.5, 5 mM MgCl2) with 100 mM KCl, no GTP; conditions: both partners purified
FtsZ [3] = target: B1; test: fluorescence polarisation; anisotropy titration of MatP (50 nM MatP-Alexa 488, 96 nM total MatP) with unlabelled FtsZ; 50 mM Tris-HCl pH 7.5, 5 mM MgCl2, 100 mM KCl; simple 1:1 model, apparent Kd = FtsZ concentration at half of the maximum signal; conditions: both partners purified
[4] = target: the molecule itself; test: fluorescence correlation spectroscopy; dilute solution buffer: 50 mM Tris-HCl pH 7.5, 5 mM MgCl2, 100 mM KCl, 0.05 g/L BSA; 10 uM MatP with 10 nM MatP-Alexa 488 as tracer, alone or with 20 uM unlabelled FtsZ, no GTP; at 300 mM KCl the profiles of MatP and FtsZ/MatP overlapped

Binder: B1
- binding result [1]: binds

Binder: B2
- binding result (FtsZ [2]): binds

Binder: B3
- Kd (FtsZ [3]): 8 µM and 18 µM
- stoichiometry N [4]: 2
